Laboratory results reported in article PMC11417369, “DNA sequence and chromatin differentiate sequence-specific transcription factor binding in the human malaria parasite Plasmodium falciparum”.
Substitutions are numbered along the chain they refer to.

Target: T1, AP2-HC D1 (Plasmodium falciparum, UniProt Q8IKR9 1316-1374)
T1 sequence: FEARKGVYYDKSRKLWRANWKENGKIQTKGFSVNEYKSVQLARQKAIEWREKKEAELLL
Assay: gcPBM; about 25 ug protein; PBS, 1% milk, 0.2 mg/ml BSA, salmon testes DNA, 0.03% Triton X-100
Conditions: tags: N-terminal GST (pGEX-4T-1), kept; label: surface-attached array probe

B1: CACACA_site6093 (dsDNA)
DNA 1: TATATAAATGGACACACACACACCTTATAATTATTA
DNA 2: TAATAATTATAAGGTGTGTGTGTGTCCATTTATATA
binding signal: 11.9 ln median PBM intensity, better of two orientations

B2: CACACA_site6643 (dsDNA)
DNA 1: AACATACACATATACACACACACATATATACCTATA
DNA 2: TATAGGTATATATGTGTGTGTGTATATGTGTATGTT
binding signal: 11.9 ln median PBM intensity, better of two orientations

B3: CACACA_site5152 (dsDNA)
DNA 1: GTATAATATGAACACACACACACACCCAAAAAAAAA
DNA 2: TTTTTTTTTGGGTGTGTGTGTGTGTTCATATTATAC
binding signal: 11.9 ln median PBM intensity, better of two orientations

B4: CACACA_site4909 (dsDNA)
DNA 1: AAAAAATCAAAACACACACACACACTAGAAAAAAAA
DNA 2: TTTTTTTTCTAGTGTGTGTGTGTGTTTTGATTTTTT
binding signal: 11.8 ln median PBM intensity, better of two orientations

B5: CACACA_site6991 (dsDNA)
DNA 1: ACAGAAAAAAGACACACACACATAATATACATACAT
DNA 2: ATGTATGTATATTATGTGTGTGTGTCTTTTTTCTGT
binding signal: 11.8 ln median PBM intensity, better of two orientations

B6: CACACA_site1444 (dsDNA)
DNA 1: B4 DNA 1 with T26C, A27C, G28A
DNA 2: B4 DNA 2 with C9T, T10G, A11G
binding signal: 11.8 ln median PBM intensity, better of two orientations

B7: CACACA_site6495 (dsDNA)
DNA 1: TTAAACTTGAGACACACACACACACGGATATAAAAA
DNA 2: TTTTTATATCCGTGTGTGTGTGTGTCTCAAGTTTAA
binding signal: 11.8 ln median PBM intensity, better of two orientations

B8: CACACA_site6714 (dsDNA)
DNA 1: ATAATACACAAGCACACACACACACGGATATTTATA
DNA 2: TATAAATATCCGTGTGTGTGTGTGCTTGTGTATTAT
binding signal: 11.8 ln median PBM intensity, better of two orientations

B9: CACACA_site4189 (dsDNA)
DNA 1: AAAAAAAACGGACACACACACATTCAATATAAAACA
DNA 2: TGTTTTATATTGAATGTGTGTGTGTCCGTTTTTTTT
binding signal: 11.8 ln median PBM intensity, better of two orientations

B10: CACACA_site8718 (dsDNA)
DNA 1: ATAATTTGTGGACACACACACACACCGACATATATA
DNA 2: TATATATGTCGGTGTGTGTGTGTGTCCACAAATTAT
binding signal: 11.8 ln median PBM intensity, better of two orientations

B11: CACACA_site4551 (dsDNA)
DNA 1: AAAAAAAAAAAACACACACACACACTAGTACATACA
DNA 2: TGTATGTACTAGTGTGTGTGTGTGTTTTTTTTTTTT
binding signal: 11.8 ln median PBM intensity, better of two orientations

B12: CACACA_site2012 (dsDNA)
DNA 1: AATATGAACAGACACACACACACAAAAAAAAAAAAA
DNA 2: TTTTTTTTTTTTTGTGTGTGTGTGTCTGTTCATATT
binding signal: 11.8 ln median PBM intensity, better of two orientations

B13: CACACA_site2857 (dsDNA)
DNA 1: AAAAAAAACAGACACACACACATACACATACATACA
DNA 2: TGTATGTATGTGTATGTGTGTGTGTCTGTTTTTTTT
binding signal: 11.8 ln median PBM intensity, better of two orientations

B14: CACACA_site4398 (dsDNA)
DNA 1: AGTATACTCAAACACACACACACAAAAAAAAAAAAA
DNA 2: TTTTTTTTTTTTTGTGTGTGTGTGTTTGAGTATACT
binding signal: 11.8 ln median PBM intensity, better of two orientations

B15: CACACA_site3306 (dsDNA)
DNA 1: CAACATTTGAAACACACACACATACAAACAAACAAA
DNA 2: TTTGTTTGTTTGTATGTGTGTGTGTTTCAAATGTTG
binding signal: 11.8 ln median PBM intensity, better of two orientations

B16: CACACA_site482 (dsDNA)
DNA 1: GAATAATCCAAACACACACACACACCCGAATAAATA
DNA 2: TATTTATTCGGGTGTGTGTGTGTGTTTGGATTATTC
binding signal: 11.7 ln median PBM intensity, better of two orientations

B17: CACACA_site3497 (dsDNA)
DNA 1: AGCAAATACAAACACACACACACATATACATATATA
DNA 2: TATATATGTATATGTGTGTGTGTGTTTGTATTTGCT
binding signal: 11.7 ln median PBM intensity, better of two orientations

B18: CACACA_site6301 (dsDNA)
DNA 1: CACACGCACAGACACACACACACACGGATATAAATA
DNA 2: TATTTATATCCGTGTGTGTGTGTGTCTGTGCGTGTG
binding signal: 11.7 ln median PBM intensity, better of two orientations

B19: CACACA_site8770 (dsDNA)
DNA 1: AACAAACACAGACACACACACACACTAATATGATTA
DNA 2: TAATCATATTAGTGTGTGTGTGTGTCTGTGTTTGTT
binding signal: 11.7 ln median PBM intensity, better of two orientations

B20: CACACA_site5428 (dsDNA)
DNA 1: AAAAGATAATTATGCACACACACACCCAGACACAAC
DNA 2: GTTGTGTCTGGGTGTGTGTGTGCATAATTATCTTTT
binding signal: 11.7 ln median PBM intensity, better of two orientations

B21: CACACA_site1447 (dsDNA)
DNA 1: AAAAAAAAAAAACACACACACACACCCACAAAATAT
DNA 2: ATATTTTGTGGGTGTGTGTGTGTGTTTTTTTTTTTT
binding signal: 11.7 ln median PBM intensity, better of two orientations

B22: CACACA_site2860 (dsDNA)
DNA 1: AAAAAAAAAAAAAACACACACACACCCATACACATA
DNA 2: TATGTGTATGGGTGTGTGTGTGTTTTTTTTTTTTTT
binding signal: 11.7 ln median PBM intensity, better of two orientations

B23: CACACA_site118 (dsDNA)
DNA 1: ATATATATATATTACACACACACAAAAAAAATAAAG
DNA 2: CTTTATTTTTTTTGTGTGTGTGTAATATATATATAT
binding signal: 11.7 ln median PBM intensity, better of two orientations

B24: CACACA_site758 (dsDNA)
DNA 1: B7 DNA 1 with G11A, G26C, G27C
DNA 2: B7 DNA 2 with C10G, C11G, C26T
binding signal: 11.7 ln median PBM intensity, better of two orientations

B25: CACACA_site6216 (dsDNA)
DNA 1: AAAAAAAAAAGACACACACACACACGGAGATATATA
DNA 2: TATATATCTCCGTGTGTGTGTGTGTCTTTTTTTTTT
binding signal: 11.7 ln median PBM intensity, better of two orientations

B26: CACACA_site4465 (dsDNA)
DNA 1: AAATAATATAAATACACACACACATATATAAATACA
DNA 2: TGTATTTATATATGTGTGTGTGTATTTATATTATTT
binding signal: 11.7 ln median PBM intensity, better of two orientations

B27: CACACA_site7659 (dsDNA)
DNA 1: AGAATAAAAAGGAACACACACACACGCATATAAATA
DNA 2: TATTTATATGCGTGTGTGTGTGTTCCTTTTTATTCT
binding signal: 11.7 ln median PBM intensity, better of two orientations

B28: CACACA_site5780 (dsDNA)
DNA 1: ATAAATTAAAAACACACACACATCTGGATACCCCTA
DNA 2: TAGGGGTATCCAGATGTGTGTGTGTTTTTAATTTAT
binding signal: 11.5 ln median PBM intensity, better of two orientations

B29: CACACA_site8023 (dsDNA)
DNA 1: CCTGAACACATACATACACACACACTAATAAAAAAA
DNA 2: TTTTTTTATTAGTGTGTGTGTATGTATGTGTTCAGG
binding signal: 11.3 ln median PBM intensity, better of two orientations

B30: CACACA_site1505 (dsDNA)
DNA 1: TATATATATATATACACACACACAAAAAAAAAAAAA
DNA 2: TTTTTTTTTTTTTGTGTGTGTGTATATATATATATA
binding signal: 11.3 ln median PBM intensity, better of two orientations

B31: CACACA_site1585 (dsDNA)
DNA 1: AAAATAAAAAAAAACACACACATACAAGCATATATA
DNA 2: TATATATGCTTGTATGTGTGTGTTTTTTTTTATTTT
binding signal: 11.2 ln median PBM intensity, better of two orientations

B32: CACACA_site8113 (dsDNA)
DNA 1: CACGCATACAGACACACACACACACCGATATATATA
DNA 2: TATATATATCGGTGTGTGTGTGTGTCTGTATGCGTG
binding signal: 11.1 ln median PBM intensity, better of two orientations

B33: CACACA_site6373 (dsDNA)
DNA 1: AACATACATAGACACACACACACACGCACACGCACA
DNA 2: TGTGCGTGTGCGTGTGTGTGTGTGTCTATGTATGTT
binding signal: 11 ln median PBM intensity, better of two orientations

B34: CACACA_site3056 (dsDNA)
DNA 1: AGCTCTTGTCATTTTGCACACACACCCGTATAGGTT
DNA 2: AACCTATACGGGTGTGTGTGCAAAATGACAAGAGCT
binding signal: 11 ln median PBM intensity, better of two orientations

B35: CACACA_site803 (dsDNA)
DNA 1: AAAAAAAACAAATACACACGCACACCGAAAAAAAAA
DNA 2: TTTTTTTTTCGGTGTGCGTGTGTATTTGTTTTTTTT
binding signal: 10.9 ln median PBM intensity, better of two orientations

B36: CACACA_site6334 (dsDNA)
DNA 1: AAAAAAAAAAGACACACACACAAATACAAATACATA
DNA 2: TATGTATTTGTATTTGTGTGTGTGTCTTTTTTTTTT
binding signal: 10.9 ln median PBM intensity, better of two orientations

B37: CACACA_site8823 (dsDNA)
DNA 1: TAATTATGCCAACACACACACACACCCAACTAAAAA
DNA 2: TTTTTAGTTGGGTGTGTGTGTGTGTTGGCATAATTA
binding signal: 10.8 ln median PBM intensity, better of two orientations

B38: CACACA_site1725 (dsDNA)
DNA 1: CATATATACGCATACACACACACACCCACACCCACA
DNA 2: TGTGGGTGTGGGTGTGTGTGTGTATGCGTATATATG
binding signal: 10.7 ln median PBM intensity, better of two orientations

B39: CACACA_site270 (dsDNA)
DNA 1: AATACTTATTATGAAACACACACCAAAACTACATAA
DNA 2: TTATGTAGTTTTGGTGTGTGTTTCATAATAAGTATT
binding signal: 10.7 ln median PBM intensity, better of two orientations

B40: CACACA_site8328 (dsDNA)
DNA 1: TTGGGTCAAACATAAACACACACAAAAAGAAAAAAT
DNA 2: ATTTTTTCTTTTTGTGTGTGTTTATGTTTGACCCAA
binding signal: 10.7 ln median PBM intensity, better of two orientations

B41: CACACA_site336 (dsDNA)
DNA 1: GGAGCACCCAGACACACACACACATATATATATATA
DNA 2: TATATATATATATGTGTGTGTGTGTCTGGGTGCTCC
binding signal: 10.6 ln median PBM intensity, better of two orientations

B42: CACACA_site8795 (dsDNA)
DNA 1: CTTATATATTGCCCTTCACACACACCCATATATATA
DNA 2: TATATATATGGGTGTGTGTGAAGGGCAATATATAAG
binding signal: 10.6 ln median PBM intensity, better of two orientations

B43: CACACA_site4573 (dsDNA)
DNA 1: TATGCAAGGAACCACACACACACACCGAAATGTATA
DNA 2: TATACATTTCGGTGTGTGTGTGTGGTTCCTTGCATA
binding signal: 10.6 ln median PBM intensity, better of two orientations

B44: CACACA_site4891 (dsDNA)
DNA 1: TAATAAATAGGACACACACACATATATATATATTAT
DNA 2: ATAATATATATATATGTGTGTGTGTCCTATTTATTA
binding signal: 10.5 ln median PBM intensity, better of two orientations
